The values that follow come from patent US12570711B2, “Platforms for co-stimulation, novel car designs and other enhancements for adoptive cellular therapy” (Angeles Therapeutics, Inc., priority 2017, dated 2026).

One assay concerns RAJI-Luc cells. Briefly: NSG mice xenografted with RAJI-Luc cells, CD19-CAR T cells with FKBP-fusion modules, with or without AP20187. In kind it is in vivo, mouse. The note with it: AP20187 40 μg every day for 10 days intraperitoneal. How it is done:
T cells expressing the CAR and these accessory modules are tested using in vitro assays in the absence and presence of the dimerizer AP20187 (100 nM). […] Half the mice in each group (n =6) are administered 40 μg of AP20187 every day for 10 days by intraperitoneal injection as described previously (Chinnery et al, J Immunol 2009; 182:2738-2744).

The target in assay [1] is T1, human MPL (Homo sapiens, UniProt P40238).
T1 construct: endogenous in cells; host or cells: HEL-92.1.7 (HEL) cells
T1 sequence (P40238 26-635): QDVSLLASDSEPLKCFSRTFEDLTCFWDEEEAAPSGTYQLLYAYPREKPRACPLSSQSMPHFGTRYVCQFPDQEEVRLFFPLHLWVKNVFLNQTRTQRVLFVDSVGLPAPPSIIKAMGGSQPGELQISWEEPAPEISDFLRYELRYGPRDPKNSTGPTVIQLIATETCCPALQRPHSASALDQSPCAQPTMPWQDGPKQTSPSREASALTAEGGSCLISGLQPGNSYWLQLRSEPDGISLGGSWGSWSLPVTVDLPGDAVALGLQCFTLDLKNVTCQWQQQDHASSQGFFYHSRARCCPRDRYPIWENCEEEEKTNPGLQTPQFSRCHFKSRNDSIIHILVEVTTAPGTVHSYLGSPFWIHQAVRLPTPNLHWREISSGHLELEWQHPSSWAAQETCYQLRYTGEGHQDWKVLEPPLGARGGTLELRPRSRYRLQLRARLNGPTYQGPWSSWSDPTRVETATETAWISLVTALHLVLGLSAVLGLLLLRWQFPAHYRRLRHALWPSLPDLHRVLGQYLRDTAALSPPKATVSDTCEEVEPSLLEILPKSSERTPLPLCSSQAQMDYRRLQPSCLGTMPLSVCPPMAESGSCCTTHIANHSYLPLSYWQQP
Kind of assay: Jurkat-NFAT-EGFP (J-N-G) reporter: EGFP induction upon co-culture with HEL cells. The format is cell-based. The note with it: 4 h. The source says:
Jurkat cell line (clone E6-1) engineered with a NFAT-dependent EGFP (or GFP) reporter gene was a gift from Dr. Arthur Weiss at University of California San Francisco and have been described to study CAR-signaling ((Wu, C Y et al., Science 350:293-302, 2015). Jurkat cells were maintained in RPMI-1640 medium supplemented with 10% FBS, penicillin and streptomycin.
The murine monoclonal antibody 161 targets human MPL (Thrombopoietin receptor o TPO-R). To generate a CAR targeting MPL but with reduced immunogenicity, sequence of the scFV fragment comprising the antigen binding domain of the murine 161 antibody was humanized. […] Jurkat-NFAT-EGFP (J-N-G) cells were stably transduced with the lentivirus encoding the humanized MPL-hu-161-2 CAR construct. The parental and CAR-expressing Jurkats were subsequently cocultured with HEL cells and induction of EGFP expression monitored by FACS analysis after 4 h.
The murine monoclonals 175 and 111 also bind human MPL. […] The experiment is repeated as in the preceding example.
The sequence of these TFP CAR constructs is shown in SEQ ID NO: 3526 to 3533. […]
Several Ab-TCR are constructed targeting MPL based on murine 161 scFV as the antigen binding domain. […] T cells expressing MPL Ab-TCRs are shown to induce lysis of HEL-GLuc cells as measured by increase in GLuc activity. […]

Assay [2] deals with T1, human MPL. Kind of assay: NFAT-driven GFP expression and IL2 production of parental and TCR-deficient J-N-G cells exposed to HEL.92.1.7 cells. In kind it is cell-based. The note with it: MPL-specific TFP-expressing J-N-G cells with the corresponding TCR chain knocked out; HEL.92.1.7 co-culture. An excerpt:
Jurkat-NFAT-GFP (J-N-G) cells (T cell lymphoma) are infected with lentiviral vectors expressing gRNAs targeting TCRα and TCRβ1/β2 constant chains and coexpressing Streptococcus Pyogenes Cas9. The exemplary gRNA target sequences for TCRα chains are given in SEQ ID NO: 7754 and 7755. The exemplary gRNA target sequences for TCRβ1/β2 chains are given in SEQ ID NO: 7756-7758. In an alternative embodiment, the TCRα and TCRβ1/β2 constant chain loci are targeting using gRNA and TALONs as described in Knipping F et al, Molecular Therapy: Methods & Clinical Development, Vol 4, 2017. J-N-G cells lacking the expression of TCRα or TCRβ1/β2 chains are purified by cell sorting using antibodies directed against TCR/CD3 complex. […] Expression of TFPs in the cells is determined by immunostaining with Protein L staining and by staining with MPL-ECD-GGSG-NLuc-AcVS fusion protein (SEQ ID NO: 4923). J-N-G parental cells show robust TFP expression on cell surface while J-N-G cells lacking TCRα or TCRβ1/β2 chains show poor to absent TFP expression. The different populations of J-N-G cells are exposed to HEL.92.1.7 target cells for 24 hours and examined for increase in NFAT-promoter driven GFP expression and IL2 production. J-N-G parental cells expressing MPL-specific TFPs show marked increase in GFP fluorescence and IL2 secretion upon co-culture with HEL.92.1.7 cells. […]

Regarding `CC[C@H](C(=O)N1CCCC[C@H]1C(=O)O[C@H](CCc1ccc(OC)c(OC)c1)c1cccc(OCC(=O)NCC(CNC(=O)COc2cccc([C@@H](CCc3ccc(OC)c(OC)c3)OC(=O)[C@@H]3CCCCN3C(=O)[C@@H](CC)c3cc(OC)c(OC)c(OC)c3)c2)CN(C)C)c1)c1cc(OC)c(OC)c(OC)c1` [AP20187], the “expansion of CAR-T cells in vivo” value in the assay with RAJI-Luc cells is listed as “promote the expansion of CAR-T cells”.

B1: MPL-hu-161-2: 2nd generation CAR (41BB, CD3z) with humanized 161 scFv hu-161-2 targeting human MPL (protein)
chain: MALPVTALLLPLALLLHAARPDVVMTQSPSSLSASVGDRVTITCMASEDIYIRLAWYQQKPGNAPKLLIYAATSLETGVPSRFSGSGSGTDFTLTISSLQPEDFATYYCQQYWSSPWTFGGGTKVEIKGGGGSGGGGSGGGGSQVQLQESGPGLVKPSQTLSLTCTVSGYSITSDYTWNWIRQPPGNGLEWIGYITYSGSTSYNPSLKSRVLISVDTSKNQVSLKLSSVTAADTAVYYCARLGRRYTMDYWGQGTTVTVSSTREQKLISEEDLAKPTTTPAPRPPTPAPTIASQPLSLRPEACRPAAGGAVHTRGLDFACDIYIWAPLAGTCGVLLLSLVITLYCKRGRKKLLYIFKQPFMRPVQTTQEEDGCSCRFPEEEEGGCELRVKFSRSADAPAYQQGQNQLYNELNLGRREEYDVLDKRRGRDPEMGGKPRRKNPQEGLYNELQKDKMAEAYSEIGMKGERRRGKGHDGLYQGLSTATKDTYDALHMQALPPRSSGSGEGRGSLLTCGDVEENPGPHMTEYKPTVRLATRDDVPRAVRTLAAAFADYPATRHTVDPDRHIERVTELQELFLTRVGLDIGKVWVADDGAAVAVWTTPESVEAGAVFAEIGPRMAELSGSRLAAQQQMEGLLAPHRPKEPAWFLATVGVSPDHQGKGLGSAVVLPGVEAAERAGVPAFLETSAPRNLPFYERLGFTVTADVEVPEGPRTWCMTRKPGA
modifications: Synthetic Polynucleotide encoding a CAR with optional accessory module(s)
B1: the EGFP expression result with human MPL [1] is “increase in EGFP expression”.

B2: IgSP-[hTRBC-opt2]: codon optimized TCRβ constant chain with signal peptide (protein)
chain: MDWIWRILFLVGAATGAHSFEGGTREDLKNVFPPEVAVFEPSEAEISHTQKATLVCLATGFYPDHVELSWWVNGKEVHSGVSTDPQPLKEQPALNDSRYCLSSRLRVSATFWQNPRNHFRCQVQFYGLSENDEWTQDRAKPVTQIVSAEAWGRADCGFTSESYQQGVLSATILYEILLGKATLYAVLVSALVLMAMVKRKDSRG
Take B2: the “TFP surface expression, GFP expression and IL2 secretion after expression of the constant chain” value in the assay with human MPL [2] is “increased expression of TFP on the cell surface and induction of GFP expression and IL2 secretion”.

B3: IgSP-[hTRAC-opt2]: codon optimized TCRα constant chain with signal peptide (protein)
chain: MDWIWRILFLVGAATGAHSFEGGTRFEGGLEIQNPDPAVYQLRDSKSSDKSVCLFTDFDSQTNVSQSKDSDVYITDKTVLDMRSMDFKSNSAVAWSNKSDFACANAFNNSIIPEDTFFPSPESSCDVKLVEKSFETDTNLNFQNLSVIGFRILLLKVAGFNLLMTLRLWSS
As for B3, the “TFP surface expression, GFP expression and IL2 secretion after expression of the constant chain” value with human MPL [2] is “increased expression of TFP on the cell surface and induction of GFP expression and IL2 secretion”.
